Measured values reported in US20260042834A1, “ANTI-CORTICOTROPIN-RELEASING HORMONE ANTIBODIES AND POLYCYSTIC OVARY SYNDROME” (HBM ALPHA THERAPEUTICS, INC., priority 2022, published 2026).
Read-outs that look alike come from different tables or passages of the source.

Experiments:
[1] = test system: restraint-induced ACTH and corticosterone; assay: Wildtype mice restraint-stress model (ACTH and corticosterone); format: in vivo, mouse; conditions: mAb 5 mg/kg
[2] = test system: restraint-induced ACTH and corticosterone; assay: as above; format: in vivo, mouse
Method: 8-10 week old wildtype female C57BL/6 mice were obtained from Charles River Laboratories. Mrap1 KO mice were obtained from Queen Mary University of London, UK. SSR125543A, a small molecule CRHR1 antagonist, was obtained from Axon Medchem (Cat #Axon 1799). Mouse Corticosterone (55-Corms-E01) and adrenocorticotropic hormone (ACTH) ELISA kits (21-ACTHU-E01) were obtained from ALPCO, USA. All procedures were carried out in accordance with the Guide for the Care and Use of Laboratory Animals of the National Institutes of Health. Protocols were approved by Charles River Laboratories Institutional Animal Care and Use Committee (IACUC).
To determine the effect of nonpainful physical restraint upon stress responses, mice were restrained in 50 ml polypropylene ventilated tubes in which the tip was cut off with a razor blade to allow the mouse to breathe easily for 15-20 minutes. A mouse was directed to the open tube and crawled in. A piece of paper towel was put behind the mouse so that it could not back out, and the cap was screwed on. The mouse was placed back in its cage, ventral size down on the bedding. This stressor is not considered painful, as mice are confined to a limited space (in a ventilated restraint tube) but not in an unnatural physical position. The investigator was present in the room during the entire procedure. At the end of the procedure, the mouse was removed by the tail.
On day 1, each mouse was injected intraperitoneally with 20 mg/kg of anti-CRH mAbs, hIgG1 or PBS (5 mice per group). On day 2 or 3, and 14 each mouse was subjected to physical restraint-stress described above for 15 or 20 min. Immediately after restraint-stress, 200 μl of blood was collected in EDTA tubes from the submandibular vein of each mouse. Plasma was separated using a refrigerated centrifuge (4° C. at 500×g for 10 min) and snap-frozen in dry ice for subsequent ACTH and corticosterone ELISA measurement.
On day 1, one half of mice were injected IP with 20 mg/kg of anti-CRH Ab or hIgG1 (5 mice per group). On day 3, the other half of mice were injected IP with 30 mg/kg of SSR125543A or solvent (5 mice each group). Two hours later, four groups of mice were subjected to restraint-stress as described above for 20 min. Immediately after restraint-stress, 200 μl of blood was collected in EDTA tubes from the submandibular vein of each mouse in all four groups. Plasma was separated as described above and snap-frozen in dry ice for subsequent ACTH and corticosterone ELISA measurement. On day 4, SSR125543A or solvent-treated mice were subjected to a second round of restraint stress for 20 min and plasma was collected. Two weeks later, anti-CRH mAb- or hIgG1-treated mice were subjected to physical stress for 20 min followed by plasma collection.

[3] = target: T1, N-terminal region plus central region, central region only, central region plus C-terminal region of CRH (Homo sapiens, UniProt P06850); assay: ELISA determining the binding region of CRH; conditions: dash = no binding
T1 construct: N-terminal region plus the central region (CT biotin), the central region only (NT biotin or CT biotin)
Method: Streptavidin (Thermo, Cat: 21125) was diluted in PBS to a concentration of 2 μg/ml. 100 μl of diluted streptavidin was added per well to ELISA microplates, and the plates were incubated overnight at 4° C. Plates were blocked with ELISA blocking solution (containing 2% w/v BSA, 0.05% (v/v) Tween-20, pH 7.4 PBS buffer) at 37° C. for 1 hour, and then incubated with 1 μg/mL N-terminal region plus the central region (CT biotin), the central region only (NT biotin or CT biotin), or the central region plus C-terminal region (NT biotin) of CRH for 1 hour at 37° C. Plates were then washed and incubated with diluted anti-CRH antibody (Ab) at 15 μg/ml (100 nM, 10 diluted, 8 points) for 1 hour at 37° C. Subsequently, plates were washed and incubated with HRP-conjugated goat anti-human IgG (H+L) antibody (Jackson, Cat: 109-035-088) at 37° C. for 1 hour. 100 μL of 3,3′,5,5′-tetramethylbenzidine (TMB) substrate (Biopanda, Cat: TMB-S-003) was added, and the plates were incubated at room temperature for 15 minutes. 100 μL of ELISA stopping solution (Solarbio, Cat #: C1058) was added to terminate the reaction, and the optical density at 450 nm (OD450 nm) was determined by an ELISA plate reader (Molecular Devices, Spectra max 384 plus).

Row | Molecule | efficacy in reducing plasma ACTH and corticosterone levels versus SSR125543A at 30 mg/kg [1] | efficacy versus SSR125543A at inhibiting restraint induced ACTH and corticosterone ([2]; doses not given) | duration of the effects ([2]; restraint) | inhibition of ACTH and corticosterone versus SSR125543A ([2]; restraint) | efficacy in reducing plasma ACTH and corticosterone levels versus SSR125543A at 30 mg/kg ([2]; restraint, mAb 20 mg/kg) | EC50 ([3]; central plus C-terminal region CRH peptide, NT-biotin (SEQ ID NO: 483), read-out: ELISA EC50 C-Ter-CRH (NT-Bion)) [µM] | EC50 ([3]; central region CRH peptide, CT-biotin (SEQ ID NO: 485), read-out: ELISA EC50 Central-CRH (CT-Bion)) [µM] | EC50 ([3]; central region CRH peptide, NT-biotin (SEQ ID NO: 484), read-out: ELISA EC50 Central-CRH (NT-Bion)) [µM]
1 | PR302334-24: humanized variant of Series 9 mAb PR302334; VH SEQ ID NO: 275, VL SEQ ID NO: 328 (antibody, V domains shown, PR302334-16 VH, PR302334-24 VH, PR302334-25 VH; PR302334-10 VL, PR302334-24 VL, PR302334-26 VL, PR302334-4 VL) VH: EVQLVESGGGLVKPGGSLRLSCAASGFTFSTYAMSWVRQAPGKGLEWVASIRSGGTTYYPDSVKGRFTISRDNAKNSLYLQMNSLRAEDTAVYYCTRGIDWGQGTTVTVSS VL: DIVMTQSPDSLAVSLGERATINCKASQSVNNDVAWYQQKPGQPPRLLIYYASNRYTGVPDRFSGSGSGTDFTLTISSLQAEDLAVYFCQQDYSSWTFGGGTKVEIK | more efficacious | superior efficacy | at least 17 days | more complete inhibition | more efficacious |  |  | 
2 | PR302334-26: humanized variant of Series 9 mAb PR302334; VH SEQ ID NO: 277, VL SEQ ID NO: 328 (antibody, V domains shown, PR302334-18 VH, PR302334-26 VH, PR302334-27 VH; PR302334-10 VL, PR302334-24 VL, PR302334-26 VL, PR302334-4 VL) VH: EVQLVESGGGLVQPGGSLRLSCAASGFTFSTYAMSWVRQAPGKGLEWVASIRSGGTTYYPDSVKGRFTISRDNSKNSLYLQMNSLRAEDTAVYYCTRGIDWGQGTTVTVSS VL: DIVMTQSPDSLAVSLGERATINCKASQSVNNDVAWYQQKPGQPPRLLIYYASNRYTGVPDRFSGSGSGTDFTLTISSLQAEDLAVYFCQQDYSSWTFGGGTKVEIK |  |  |  |  |  | > 0.1 | > 0.1 | > 0.1
